Reference: US20210268070A1, “Use of Immunomodulators to Control Infection and Stimulate Healing in Normal and Diabetic Wounds” (priority 2018, published 2021)

B1: Chemokine (C-C motif) ligand 3 (protein, listed as Homo sapiens)
chain: MQVSTAALAVLLCTMALCNQFSASLAADTPTACCFSYTSRQIPQNFIADYFETSSQCSKPGVIFLTKRSRQVCADPSEEWVQKYVSDLELSA
notes: class 1 immunomodulator

Legend:
P. aeruginosa PA103 = experiment: Implant model of infection with PA103; format: in vivo; conditions: C57B mice, 10^6 PA103, topical at surgical site at time of surgery & infection, 10 ng or 100 ng, dose-dependent, 24 h following infection, FIG. 2A
Protocol: The implant model of infection in C57B mice was used for 10^6 PA103 (FIG. 2A) or 10^6 USA300 MRSA (FIG. 2C). The wound model of infection was used for 10^6 PA103 in C57BL mice (FIG. 2B) or diabetic db/db mice (FIG. 2D). Infection was carried out at the time of surgery by adding bacteria directly to the surgical sites. Immunomodulators, namely, LPS (10 ng or 100 ng), fMLP (10 ng or 100 ng), CCL3 (1 μg) were added topically at the surgical sites at the time of surgery & infection. GM-CSF (10 μg/kg), tobramycin (Tob at 3.5 mg/kg), and vancomycin (40 mg/kg) were added systemically by i.p. injection 1 h before surgical implantation and infection. Infection levels were determined 24 h following infection (N>4 animals/group; NS=not significant, * p<0.01, ** p<0.001, ***p<0.0001 One-way ANOVA).
We assessed these immunomodulators for their ability to control wound and/or implant SS's in normal (C57BL/6) or diabetic (db/db) mice. We acknowledge that diabetic individuals are not as immunocompromised as other immunocompromised patient groups. […] All immunomodulators were added locally at the surgical sites at the time of infection, except GM-CSF (10 μg/kg) which was administered systemically by i.p. injection 1 h prior to surgery per its FDA-approved route of delivery. […] CCL3 and GM-CSF are also tested using the implant model of infection. Here, we tested CCL3 and GM-CSF in the wound model of infection in C57B mice.
(§1) Implant surgery and wound surgery and surgical site infection are performed according to the following method. On the day of surgery, all mice are anesthetized by an intraperitoneal injection of a ketamine/xylazine mixture (90 mg/kg ketamine+5 mg/kg xylazine for mice). The back of the animals is shaved using an electric shave and scrubbed with alcohol swabs 3 times, a topical antiseptic solution (Hibiclens; chlorhexidine gluconate) is applied to the skin. The surgical procedures are performed with sterile instruments, sterile surgical gloves, and aseptic techniques as follows. […]

diabetic wounds = experiment: Collagen deposition and wound healing in infected diabetic wounds; format: in vivo, db/db mice; conditions: P. aeruginosa PA103 10^3 infected, compared to PBS
Description: FIGS. 11A-11C illustrate that CCL3 increases infection control (11A), collagen deposition (11B) and enhances wound healing (11C) in diabetic wounds. P. aeruginosa PA103 10^3N=4; Significance determined as compared to PBS *<0.05, **p<0.01, ***p<0.001.
(§2) As discussed above immunomodulatory therapies enhance infection control in both normal and diabetic models. FIGS. 11A-11C illustrate that CCL3 increases infection control (11A) increases collagen deposition (11B) and enhances wound healing (11C) in diabetic wounds. Immunomodulators may also be used to enhance wound healing in uninfected diabetic wounds.
as §1, with “follows. For wound surgical procedure, a sterile biopsy punch (5-7 mm diameter) is used to punch through the full thickness of the back skin below the shoulder blades. Four 5-7 mm skin wounds are made on the back of each mouse.” for “follows.”

[1] = system: diabetic uninfected wounds; experiment: Wound healing in diabetic uninfected wounds; format: in vivo, db/db mice; conditions: FIG. 14
Description: FIG. 14 illustrates CCL3 enhances wound healing in diabetic uninfected wounds.
as §2
as §1, with “follows. For wound surgical procedure, a sterile biopsy punch (5-7 mm diameter) is used to punch through the full thickness of the back skin below the shoulder blades. Four 5-7 mm skin wounds are made on the back of each mouse. Wounds placed in this area cannot be reached by the animals and therefore are protected from self-licking.” for “follows.”

| Molecule | P. aeruginosa infection levels on both the implants and tissues surrounding implants (P. aeruginosa PA103) | collagen deposition in diabetic wounds (diabetic wounds; FIG. 11B) | wound healing in diabetic wounds (diabetic wounds; FIG. 11C) | wound healing in diabetic uninfected wounds [1] |
| --- | --- | --- | --- | --- |
| CSCC[C@H](NC=O)C(=O)N[C@@H](CC(C)C)C(=O)N[C@@H](Cc1ccccc1)C(=O)O [fMLP, N-Formylmethionyl-leucyl-phenylalanine] | significantly reduced |  |  |  |
| lipopolysaccharide [LPS] | significantly reduced |  |  |  |
| B1 |  | increases | enhances | enhances |
